Experiments:
CD20 (human) = CD20 (human) (UniProt P11836); experiment: cell-based or functional assay
CD74 (human) = CD74 (human) (UniProt P04233); experiment: cell-based or functional assay
Chain of CD74 (human) (P04233 whole entry): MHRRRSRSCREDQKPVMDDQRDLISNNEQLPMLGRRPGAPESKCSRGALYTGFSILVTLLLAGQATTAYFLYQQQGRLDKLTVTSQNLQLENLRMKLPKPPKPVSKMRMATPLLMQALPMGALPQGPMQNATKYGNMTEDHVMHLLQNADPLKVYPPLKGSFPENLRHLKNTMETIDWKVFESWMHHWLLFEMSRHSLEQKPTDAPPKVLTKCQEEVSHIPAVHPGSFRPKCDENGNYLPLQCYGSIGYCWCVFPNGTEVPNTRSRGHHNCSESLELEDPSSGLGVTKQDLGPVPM

Chain of CD20 (human) (P11836 whole entry): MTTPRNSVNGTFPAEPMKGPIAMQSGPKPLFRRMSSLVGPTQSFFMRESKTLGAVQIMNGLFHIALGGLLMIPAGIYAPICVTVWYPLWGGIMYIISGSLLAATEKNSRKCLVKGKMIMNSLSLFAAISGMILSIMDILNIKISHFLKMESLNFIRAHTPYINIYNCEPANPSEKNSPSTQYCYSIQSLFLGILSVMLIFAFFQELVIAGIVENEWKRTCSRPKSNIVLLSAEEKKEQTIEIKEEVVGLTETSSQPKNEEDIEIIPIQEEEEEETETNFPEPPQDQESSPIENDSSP

| EC50 (nM), MTS cell proliferation assay, Daudi (CD20 (human)) | EC50 (nM), MTS cell proliferation assay, Granta-519 (CD20 (human)) | EC50 (nM), MTS cell proliferation assay, JeKo-1 (CD20 (human)) | EC50 (nM), MTS cell proliferation assay, Mino (CD20 (human)) | EC50 (nM), MTS cell proliferation assay, Raji (CD20 (human)) | Percent inhibition (%) at 100 nM, MTS assay, Granta-519 (CD20 (human)) | Percent inhibition (%) at 100 nM, MTS assay, JeKo-1 (CD20 (human)) | Percent inhibition (%) at 100 nM, MTS assay, Raji (CD20 (human)) | homotypic adhesion (%), JeKo-1, 2 h, 10 nM (CD20 (human)) | homotypic adhesion (%), JeKo-1, 24 h, 10 nM (CD20 (human)) | EC50 (nM), MTS cell proliferation assay, Daudi (CD74 (human)) | EC50 (nM), MTS cell proliferation assay, Granta-519 (CD74 (human)) | EC50 (nM), MTS cell proliferation assay, JeKo-1 (CD74 (human)) | EC50 (nM), MTS cell proliferation assay, Mino (CD74 (human)) | EC50 (nM), MTS cell proliferation assay, Raji (CD74 (human)) | EC50, MTS assay, in CLL lines WAC, MEC-1, ALL lines REH-1, MN60 and MM lines CAG, RPMI8226, KMS11, KMS12-BM, KMS12-PE (CD74 (human)) | Percent inhibition (%) at 100 nM, MTS assay, Granta-519 (CD74 (human)) | Percent inhibition (%) at 100 nM, MTS assay, JeKo-1 (CD74 (human)) | Percent inhibition (%) at 100 nM, MTS assay, Mino (CD74 (human)) | Percent inhibition (%) at 100 nM, MTS assay, Raji (CD74 (human)) | Substance | also measured |
| --- | --- | --- | --- | --- | --- | --- | --- | --- | --- | --- | --- | --- | --- | --- | --- | --- | --- | --- | --- | --- | --- |
| 5.3 nM | 2 nM | 3 nM | 13.7 nM | 0.3 nM | 55% | 70% | 50% | 90% | > 95% | 5.3 nM | 2 nM | 3 nM | 13.7 nM | 0.3 nM | > 100 nM | 55% | 70% | 80% | 50% | 20-(74)-(74) bispecific hexavalent antibody (HexAb): CH3-AD2-IgG-veltuzumab with a pair of stabilized dimers of CH1-DDD2-Fab-milatuzumab (bispecific antibody) | Percent inhibition (%) at 100 nM, MTS assay, Mino (CD20 (human)): 80%; homotypic adhesion (%), JeKo-1, 2 h, 10 nM (CD74 (human)): 90%; homotypic adhesion (%), JeKo-1, 24 h, 10 nM (CD74 (human)): > 95% |
| 1.2 nM | 0.6 nM | 2 nM | 1.2 nM | 0.3 nM | 65% | 90% | 50% | 90% | > 95% | 1.2 nM | 0.6 nM | 2 nM | 1.2 nM | 0.3 nM | > 100 nM | 65% | 90% | 100% | 50% | 74-(20)-(20) bispecific hexavalent antibody (HexAb): CH3-AD2-IgG-milatuzumab with a pair of stabilized dimers of CH1-DDD2-Fab-veltuzumab (bispecific antibody) | homotypic adhesion (%), JeKo-1, 2 h, 10 nM (CD74 (human)): 90%; homotypic adhesion (%), JeKo-1, 24 h, 10 nM (CD74 (human)): > 95% |

Reference: patent US20160120976A1
